# Test results as given in patent US20170037129A1.
# B1: C4R1B2 (antibody, V domains shown)
# VH: QVQLVQSGAEVKKPGASVKVSCKASGYGFTSYAIHWLRQAPGQRLEWMGWINPGNGNTKYSQKFQGRVTITRDTSATTAYMELTSLRSEDSDTAVYYCARDLDGGSFDHWGQGTLVTVSS
# VL: QSVVTQPASVSGSPGQSITISCTGTSSDVGSYNLVSWYQQHPGKAPKLMIYDVTNRPSGVSNRFSGSKSGNTASLTISGLQAEDEADYYCSSYTRSSTYVFGTGTKVTVL
# B2: C4sh1B2 (antibody, V domains shown)
# VH: QMQLVQSGAEVKKPGASVKVSCKASGYTFTGYYIHWVRQAPGQGLEWMGWINPNSGGTIYAQKFQGRVTMTRDTSISTAYMELSRLRSDDTAVYYCARGSTNFDSWGQGTLVTVSS
# VL: QAGLTQPPSASGSPGQSVTISCTGTSSDVGGYNSVSWYQQHPGKAPKLMIYDVSNRPSGVSNRFSGSKSGNTASLTISGLQAEDEADYYCSSYINSGTLVFGGGTKLTVL
# B3: C4sh1A6 (antibody, V domains shown)
# VH: QVQLVESGGGVVQPGRSLRLSCAASGFTFSTYAMHWVRQAPGRGLEWVAGISYDGSNKYHADPVKGRFTISRDNSKNTLYLQMNNLRVEDSAVYYCAGDRSGGLDVWGQGTTVTVSS
# VL: DIVMTQSPSSLSASVGDRVTITCRASQGISNSLAWYQQKSGKAPKLLLYAASGLESGVPSRFSGSGSGTDYTLTISSLQPEDFATYYCQQSYSMPLTFGGGTKVEIK
# Target: endogenous human CD147 expressed on human cancer cells (human) (UniProt P35613)
# Assay: flow cytometry on PC-3 cells
row,EC50 [nM],Binder
1,> 100,B1
2,4.5,B2
3,> 100,B3

# Target: endogenous human CD147 expressed on human cancer cells (human) (UniProt P35613)
# Assay: flow cytometry on A549 cells
row,EC50 [nM],Binder
1,83.8,B1
2,3.73,B2
3,35.9,B3

# Target: endogenous human CD147 expressed on human cancer cells (human) (UniProt P35613)
# Assay: flow cytometry on K562 cells
row,EC50 [nM],Binder
1,168,B1
2,1.55,B2
3,0.6,B3
